{
  "source": "paper PMC10070186",
  "about": "“Unusual peptide-binding proteins guide pyrroloindoline alkaloid formation in crocagin biosynthesis” (Nature Chemistry, 2023)",
  "key": {"[1]": {"target": "CgnE (Chondromyces crocatus CM c5)", "sequence (main, as listed by the source)": "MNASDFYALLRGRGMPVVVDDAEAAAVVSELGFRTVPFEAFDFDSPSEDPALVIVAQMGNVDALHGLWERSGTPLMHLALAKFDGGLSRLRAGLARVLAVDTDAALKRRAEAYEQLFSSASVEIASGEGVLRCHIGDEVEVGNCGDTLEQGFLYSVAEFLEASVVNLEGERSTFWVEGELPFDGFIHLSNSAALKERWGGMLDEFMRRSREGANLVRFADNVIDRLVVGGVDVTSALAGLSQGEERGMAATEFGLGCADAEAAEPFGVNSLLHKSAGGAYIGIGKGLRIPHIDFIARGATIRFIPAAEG", "assay": "MST; microscale thermophoresis of two components; which one was titrated is told only in Fig. 3c"}, "[2]": {"target": "CgnB (Chondromyces crocatus CM c5)", "assay": "MST; microscale thermophoresis of two components; which one was titrated is told only in Fig. 3c"}},
  "data": [
    {"binder": "MKKTIKQISAGDRSKKGNIYW (modifications not checked)", "note": "[CgnA, crocagin precursor peptide]", "values": [
      {"measurement": "Kd", "setting": "[1]", "value": 1.8, "unit": "µM"},
      {"measurement": "Kd", "setting": "[2]", "value": 10.5, "unit": "µM"}
    ]}
  ]
}
